According to paper PMC2745200 (Biochimie, 2009):

Target: the molecule itself
Assay: SEC

B1: human ω-amidase/Nit2 (nitrilase-like protein 2) (enzyme, UniProt Q9NQR4 1-276, looked up)
chain: MTSFRLALIQLQISSIKSDNVTRACSFIREAATQGAKIVSLPECFNSPYGAKYFPEYAEKIPGESTQKLSEVAKECSIYLIGGSIPEEDAGKLYNTCAVFGPDGTLLAKYRKIHLFDIDVPGKITFQESKTLSPGDSFSTFDTPYCRVGLGICYDMRFAELAQIYAQRGCQLLVYPGAFNLTTGPAHWELLQRSRAVDNQVYVATASPARDDKASYVAWGHSTVVNPWGEVLAKAGTEEAIVYSDIDLKKLAEIRQQIPVFRQKRSDLYAVEMKKP
stoichiometry N: 2
